Measurements published in IntAct's records for PubMed 23340509.

B1: Protein Tob2 (Homo sapiens), Q14106 (parent)
chain: MQLEIKVALNFIISYLYNKLPRRRADLFGEELERLLKKKYEGHWYPEKPLKGSGFRCVHIGEMVDPVVELAAKRSGLAVEDVRANVPEELSVWIDPFEVSYQIGEKGAVKVLYLDDSEGCGAPELDKEIKSSFNPDAQVFVPIGSQDSSLSNSPSPSFGQSPSPTFIPRSAQPITFTTASFAATKFGSTKMKKGGGAASGGGVASSGAGGQQPPQQPRMARSPTNSLLKHKSLSLSMHSLNFITANPAPQSQLSPNAKEFVYNGGGSPSLFFDAADGQGSGTPGPFGGSGAGTCNSSSFDMAQVFGGGANSLFLEKTPFVEGLSYNLNTMQYPSQQFQPVVLAN

Variants of: B1
Details: with pabp1_human PABPC1, P11940
pabp1_human PABPC1, P11940, sequence (P11940 whole entry): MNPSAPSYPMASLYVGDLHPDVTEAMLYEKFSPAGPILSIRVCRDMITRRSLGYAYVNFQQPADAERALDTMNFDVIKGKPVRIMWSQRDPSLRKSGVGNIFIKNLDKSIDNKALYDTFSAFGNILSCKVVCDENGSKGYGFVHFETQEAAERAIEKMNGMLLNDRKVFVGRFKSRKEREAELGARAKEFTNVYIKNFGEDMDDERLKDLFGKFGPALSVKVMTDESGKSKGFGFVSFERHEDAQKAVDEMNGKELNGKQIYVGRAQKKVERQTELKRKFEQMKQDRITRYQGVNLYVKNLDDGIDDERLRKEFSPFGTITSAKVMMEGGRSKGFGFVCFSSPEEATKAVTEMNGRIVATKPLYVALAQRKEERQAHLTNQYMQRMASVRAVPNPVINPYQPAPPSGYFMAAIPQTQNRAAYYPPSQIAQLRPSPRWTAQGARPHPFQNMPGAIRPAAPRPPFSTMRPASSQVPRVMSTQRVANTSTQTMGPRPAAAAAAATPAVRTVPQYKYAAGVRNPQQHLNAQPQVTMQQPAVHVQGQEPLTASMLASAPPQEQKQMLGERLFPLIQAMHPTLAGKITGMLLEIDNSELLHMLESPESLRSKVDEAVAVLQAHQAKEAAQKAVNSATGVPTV

**Q.** MQLEIKVALNFIISYLYNKLPRRRADLFGEELERLLKKKYEGHWYPEKPLKGSGFRCVHIGEMVDPVVELAAKRSGLAVEDVRANVPEELSVWIDPFEVSYQIGEKGAVKVLYLDDSEGCGAPELDKEIKSSFNPDAQVAVPIGSQDSSLSNSPSPSFGQSPSPTFIPRSAQPITFTTASFAATKFGSTKMKKGGGAASGGGVASSGAGGQQPPQQPRMARSPTNSLLKHKSLSLSMHSLNFITANPAPQSQLSPNAKEAVYNGGGSPSLFFDAADGQGSGTPGPFGGSGAGTCNSSSFDMAQVFGGGANSLFLEKTPFVEGLSYNLNTMQYPSQQFQPVVLAN [F140A;F260A] was tested. Which “effect of a mutation on the interaction” value did it give?
**A.** The value was “disrupting interaction”.
